Results reported in patent publication US20260015399A1 (Boehringer Ingelheim, published 2026).
*1 amine or outer side, *2 acyl side, *3 side chain or, on linkers, in order; H or OH if unused. Side-chain parts run from the residue outwards. The star is where a group is joined. C18 diacid = O=C(O)CCCCCCCCCCCCCCCCC(=O)*; γGlu = O=C(O)[C@H](CCC(=O)[*:2])N[*:1]; Isovaleryl = CC(C)CC(=O)*; Ahx = NCCCCCC(=O)O

Biological target: T1, human NPY2 receptor (human, UniProt P49146 1-381)
T1 construct: whole, on cells; also called hNPY2-R; hNPY2R
T1 sequence (looked up): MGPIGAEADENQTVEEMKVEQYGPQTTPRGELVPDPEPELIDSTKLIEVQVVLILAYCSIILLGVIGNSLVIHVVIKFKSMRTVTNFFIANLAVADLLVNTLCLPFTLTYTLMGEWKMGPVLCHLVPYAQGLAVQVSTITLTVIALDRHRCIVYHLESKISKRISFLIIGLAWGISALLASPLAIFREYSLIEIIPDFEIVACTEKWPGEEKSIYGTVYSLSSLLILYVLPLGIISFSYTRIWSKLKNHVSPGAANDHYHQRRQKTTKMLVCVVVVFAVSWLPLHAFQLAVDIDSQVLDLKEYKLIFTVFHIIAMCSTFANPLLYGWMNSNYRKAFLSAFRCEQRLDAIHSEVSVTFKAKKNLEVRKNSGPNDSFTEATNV
Assay: RLB: displacement of 125I-PYY(1-36) from hNPY2R membranes
Method: The filtration RLB assay was carried out in 96-well plates in a final volume of 100 μl per well. Freeze-dried test peptides were dissolved in 100% dimethyl sulfoxide (DMSO) to stock solutions of 1 mM and serial dilutions were performed in assay buffer (50 mM HEPES, 5 mM MgCl₂, 1 mM CaCl₂), pH 7.4) containing 0.2% ovalbumin. […] Next, 80 μL membranes (HTS066M, ChemiSCREEN™ Human Neuropeptide Y2 Receptor Membrane Preparation, CHEMICON) were added to each well to give a final protein concentration of 0.5 μg/well. The plates were sealed and incubated at room temperature for 2 hours in a plate shaker set at 400 rpm. The incubation was stopped by vacuum filtration onto 0.5% polyethylene amine (PEI) presoaked GF/C filters using a 96-well FilterMate™ harvester (Perkin Elmer) followed by four washes with 300 μl/well ice-cold wash buffer (50 mM HEPES, 500 mM NaCl, pH7.4). Filter plates were then dried for 60 min at room temperature and the bottom of the plates was sealed with backing tape UniFilter-96. Finally, 50 μl/well scintillation counter cocktail (Microscint20, Packard) was added and the radioactivity was counted in the Packard TopCount NXT scintillation counter. IC₅₀ values (the half maximal inhibitory concentration of the agonist) were calculated by nonlinear regression analysis of sigmoidal dose-response curves.

Binder | Ki
Isovaleryl-APEK([Ahx-γGlu-C18 diacid])PEEDATPEELQRYYVSLRHYYNWLTRQRY-NH2 (SMILES CC(C)CC(=O)N[C@@H](C)C(=O)N1CCC[C@H]1C(=O)N[C@@H](CCC(=O)O)C(=O)N[C@@H](CCCCNC(=O)CCCCCNC(=O)CC[C@H](NC(=O)CCCCCCCCCCCCCCCCC(=O)O)C(=O)O)C(=O)N1CCC[C@H]1C(=O)N[C@@H](CCC(=O)O)C(=O)N[C@@H](CCC(=O)O)C(=O)N[C@@H](CC(=O)O)C(=O)N[C@@H](C)C(=O)N[C@H](C(=O)N1CCC[C@H]1C(=O)N[C@@H](CCC(=O)O)C(=O)N[C@@H](CCC(=O)O)C(=O)N[C@@H](CC(C)C)C(=O)N[C@@H](CCC(N)=O)C(=O)N[C@@H](CCCNC(=N)N)C(=O)N[C@@H](Cc1ccc(O)cc1)C(=O)N[C@@H](Cc1ccc(O)cc1)C(=O)N[C@H](C(=O)N[C@@H](CO)C(=O)N[C@@H](CC(C)C)C(=O)N[C@@H](CCCNC(=N)N)C(=O)N[C@@H](Cc1c[nH]cn1)C(=O)N[C@@H](Cc1ccc(O)cc1)C(=O)N[C@@H](Cc1ccc(O)cc1)C(=O)N[C@@H](CC(N)=O)C(=O)N[C@@H](Cc1c[nH]c2ccccc12)C(=O)N[C@@H](CC(C)C)C(=O)N[C@H](C(=O)N[C@@H](CCCNC(=N)N)C(=O)N[C@@H](CCC(N)=O)C(=O)N[C@@H](CCCNC(=N)N)C(=O)N[C@@H](Cc1ccc(O)cc1)C(N)=O)[C@@H](C)O)C(C)C)[C@@H](C)O) [Compound 173] | 4.07 nM
Isovaleryl-APEK([Ahx-γGlu-C18 diacid])PEEDETPEELQRYYVSLRHYYNWLTRQRY-NH2 (SMILES CC(C)CC(=O)N[C@@H](C)C(=O)N1CCC[C@H]1C(=O)N[C@@H](CCC(=O)O)C(=O)N[C@@H](CCCCNC(=O)CCCCCNC(=O)CC[C@H](NC(=O)CCCCCCCCCCCCCCCCC(=O)O)C(=O)O)C(=O)N1CCC[C@H]1C(=O)N[C@@H](CCC(=O)O)C(=O)N[C@@H](CCC(=O)O)C(=O)N[C@@H](CC(=O)O)C(=O)N[C@@H](CCC(=O)O)C(=O)N[C@H](C(=O)N1CCC[C@H]1C(=O)N[C@@H](CCC(=O)O)C(=O)N[C@@H](CCC(=O)O)C(=O)N[C@@H](CC(C)C)C(=O)N[C@@H](CCC(N)=O)C(=O)N[C@@H](CCCNC(=N)N)C(=O)N[C@@H](Cc1ccc(O)cc1)C(=O)N[C@@H](Cc1ccc(O)cc1)C(=O)N[C@H](C(=O)N[C@@H](CO)C(=O)N[C@@H](CC(C)C)C(=O)N[C@@H](CCCNC(=N)N)C(=O)N[C@@H](Cc1c[nH]cn1)C(=O)N[C@@H](Cc1ccc(O)cc1)C(=O)N[C@@H](Cc1ccc(O)cc1)C(=O)N[C@@H](CC(N)=O)C(=O)N[C@@H](Cc1c[nH]c2ccccc12)C(=O)N[C@@H](CC(C)C)C(=O)N[C@H](C(=O)N[C@@H](CCCNC(=N)N)C(=O)N[C@@H](CCC(N)=O)C(=O)N[C@@H](CCCNC(=N)N)C(=O)N[C@@H](Cc1ccc(O)cc1)C(N)=O)[C@@H](C)O)C(C)C)[C@@H](C)O) [Compound 8] | 106 nM
Isovaleryl-APEK([Ahx-γGlu-C18 diacid])PEADAEPEELQRYYIALRHYYNWLTRQRY-NH2 (SMILES CC[C@H](C)[C@H](NC(=O)[C@H](Cc1ccc(O)cc1)NC(=O)[C@H](Cc1ccc(O)cc1)NC(=O)[C@H](CCCNC(=N)N)NC(=O)[C@H](CCC(N)=O)NC(=O)[C@H](CC(C)C)NC(=O)[C@H](CCC(=O)O)NC(=O)[C@H](CCC(=O)O)NC(=O)[C@@H]1CCCN1C(=O)[C@H](CCC(=O)O)NC(=O)[C@H](C)NC(=O)[C@H](CC(=O)O)NC(=O)[C@H](C)NC(=O)[C@H](CCC(=O)O)NC(=O)[C@@H]1CCCN1C(=O)[C@H](CCCCNC(=O)CCCCCNC(=O)CC[C@H](NC(=O)CCCCCCCCCCCCCCCCC(=O)O)C(=O)O)NC(=O)[C@H](CCC(=O)O)NC(=O)[C@@H]1CCCN1C(=O)[C@H](C)NC(=O)CC(C)C)C(=O)N[C@@H](C)C(=O)N[C@@H](CC(C)C)C(=O)N[C@@H](CCCNC(=N)N)C(=O)N[C@@H](Cc1c[nH]cn1)C(=O)N[C@@H](Cc1ccc(O)cc1)C(=O)N[C@@H](Cc1ccc(O)cc1)C(=O)N[C@@H](CC(N)=O)C(=O)N[C@@H](Cc1c[nH]c2ccccc12)C(=O)N[C@@H](CC(C)C)C(=O)N[C@H](C(=O)N[C@@H](CCCNC(=N)N)C(=O)N[C@@H](CCC(N)=O)C(=O)N[C@@H](CCCNC(=N)N)C(=O)N[C@@H](Cc1ccc(O)cc1)C(N)=O)[C@@H](C)O) [Compound 1] | 2.05 nM
Isovaleryl-APAK([Ahx-γGlu-C18 diacid])PEEDASPEELQRQYVSLRHYYNWLTRQRY-NH2 (SMILES CC(C)CC(=O)N[C@@H](C)C(=O)N1CCC[C@H]1C(=O)N[C@@H](C)C(=O)N[C@@H](CCCCNC(=O)CCCCCNC(=O)CC[C@H](NC(=O)CCCCCCCCCCCCCCCCC(=O)O)C(=O)O)C(=O)N1CCC[C@H]1C(=O)N[C@@H](CCC(=O)O)C(=O)N[C@@H](CCC(=O)O)C(=O)N[C@@H](CC(=O)O)C(=O)N[C@@H](C)C(=O)N[C@@H](CO)C(=O)N1CCC[C@H]1C(=O)N[C@@H](CCC(=O)O)C(=O)N[C@@H](CCC(=O)O)C(=O)N[C@@H](CC(C)C)C(=O)N[C@@H](CCC(N)=O)C(=O)N[C@@H](CCCNC(=N)N)C(=O)N[C@@H](CCC(N)=O)C(=O)N[C@@H](Cc1ccc(O)cc1)C(=O)N[C@H](C(=O)N[C@@H](CO)C(=O)N[C@@H](CC(C)C)C(=O)N[C@@H](CCCNC(=N)N)C(=O)N[C@@H](Cc1c[nH]cn1)C(=O)N[C@@H](Cc1ccc(O)cc1)C(=O)N[C@@H](Cc1ccc(O)cc1)C(=O)N[C@@H](CC(N)=O)C(=O)N[C@@H](Cc1c[nH]c2ccccc12)C(=O)N[C@@H](CC(C)C)C(=O)N[C@H](C(=O)N[C@@H](CCCNC(=N)N)C(=O)N[C@@H](CCC(N)=O)C(=O)N[C@@H](CCCNC(=N)N)C(=O)N[C@@H](Cc1ccc(O)cc1)C(N)=O)[C@@H](C)O)C(C)C) [Compound 5] | 12.7 nM
Isovaleryl-APAK([Ahx-γGlu-C18 diacid])PEADAEPEELQRYYVALRHYYNWLTRQRY-NH2 (SMILES CC(C)CC(=O)N[C@@H](C)C(=O)N1CCC[C@H]1C(=O)N[C@@H](C)C(=O)N[C@@H](CCCCNC(=O)CCCCCNC(=O)CC[C@H](NC(=O)CCCCCCCCCCCCCCCCC(=O)O)C(=O)O)C(=O)N1CCC[C@H]1C(=O)N[C@@H](CCC(=O)O)C(=O)N[C@@H](C)C(=O)N[C@@H](CC(=O)O)C(=O)N[C@@H](C)C(=O)N[C@@H](CCC(=O)O)C(=O)N1CCC[C@H]1C(=O)N[C@@H](CCC(=O)O)C(=O)N[C@@H](CCC(=O)O)C(=O)N[C@@H](CC(C)C)C(=O)N[C@@H](CCC(N)=O)C(=O)N[C@@H](CCCNC(=N)N)C(=O)N[C@@H](Cc1ccc(O)cc1)C(=O)N[C@@H](Cc1ccc(O)cc1)C(=O)N[C@H](C(=O)N[C@@H](C)C(=O)N[C@@H](CC(C)C)C(=O)N[C@@H](CCCNC(=N)N)C(=O)N[C@@H](Cc1c[nH]cn1)C(=O)N[C@@H](Cc1ccc(O)cc1)C(=O)N[C@@H](Cc1ccc(O)cc1)C(=O)N[C@@H](CC(N)=O)C(=O)N[C@@H](Cc1c[nH]c2ccccc12)C(=O)N[C@@H](CC(C)C)C(=O)N[C@H](C(=O)N[C@@H](CCCNC(=N)N)C(=O)N[C@@H](CCC(N)=O)C(=O)N[C@@H](CCCNC(=N)N)C(=O)N[C@@H](Cc1ccc(O)cc1)C(N)=O)[C@@H](C)O)C(C)C) [Compound 3] | 1.57 nM
Isovaleryl-APEK([Ahx-γGlu-C18 diacid])PEEAAEPEELQRYYVSLRHYYNWLTRQRY-NH2 (SMILES CC(C)CC(=O)N[C@@H](C)C(=O)N1CCC[C@H]1C(=O)N[C@@H](CCC(=O)O)C(=O)N[C@@H](CCCCNC(=O)CCCCCNC(=O)CC[C@H](NC(=O)CCCCCCCCCCCCCCCCC(=O)O)C(=O)O)C(=O)N1CCC[C@H]1C(=O)N[C@@H](CCC(=O)O)C(=O)N[C@@H](CCC(=O)O)C(=O)N[C@@H](C)C(=O)N[C@@H](C)C(=O)N[C@@H](CCC(=O)O)C(=O)N1CCC[C@H]1C(=O)N[C@@H](CCC(=O)O)C(=O)N[C@@H](CCC(=O)O)C(=O)N[C@@H](CC(C)C)C(=O)N[C@@H](CCC(N)=O)C(=O)N[C@@H](CCCNC(=N)N)C(=O)N[C@@H](Cc1ccc(O)cc1)C(=O)N[C@@H](Cc1ccc(O)cc1)C(=O)N[C@H](C(=O)N[C@@H](CO)C(=O)N[C@@H](CC(C)C)C(=O)N[C@@H](CCCNC(=N)N)C(=O)N[C@@H](Cc1c[nH]cn1)C(=O)N[C@@H](Cc1ccc(O)cc1)C(=O)N[C@@H](Cc1ccc(O)cc1)C(=O)N[C@@H](CC(N)=O)C(=O)N[C@@H](Cc1c[nH]c2ccccc12)C(=O)N[C@@H](CC(C)C)C(=O)N[C@H](C(=O)N[C@@H](CCCNC(=N)N)C(=O)N[C@@H](CCC(N)=O)C(=O)N[C@@H](CCCNC(=N)N)C(=O)N[C@@H](Cc1ccc(O)cc1)C(N)=O)[C@@H](C)O)C(C)C) [Compound 4] | 4.65 nM
